Here are results for 84 variants from the RNAGym collection of RNA variant scans (doi:10.1021/acssynbio.7b00057).

B1: Pistol ribozyme (parent)
chain: GGGUCGUUGUUCCAUAAUCGCGUGGAUAUGGCACGCAAGUUUCUACCGGGCACCGUAAAUGUCCGACUGGAGCCGUUCGGGCGGCUAUAAACAGACCUCAGGCCCGAAGCGUGGCGGCACCUGCCGCCGGUGGUAAAAAAGAUCGGAAGAGCACACGUCU

Variants of B1 are the subject of the series. As to the kind of experiment: aptazyme ON/OFF ratio, guanine; higher = stronger switching; co-transcriptional cleavage with and without guanine.
With U7A U8C G9C U10C U11G C12A C13U, the “aptazyme ON/OFF ratio” value stood at 1.11.

Consider U7A U8C G9C U11A C12U, for which the “aptazyme ON/OFF ratio” value is 1.05.

As for U7A U8C G9C U11A C12G, the “aptazyme ON/OFF ratio” value turned out to be 1.09.

On to U7A U8C G9C U11A C12A, for which the “aptazyme ON/OFF ratio” value turned out to be 1.08.

As to U7A U8C G9C U10C C13A, the “aptazyme ON/OFF ratio” value turned out to be 1.06.

As for U7A U8C G9C U10C C13U, the “aptazyme ON/OFF ratio” value stood at 1.06.

U7A U8C G9C U10C C13G: the “aptazyme ON/OFF ratio” value was 1.07.

With U7A U8C G9C C13U, the “aptazyme ON/OFF ratio” value came out at 1.07.

Turning to U7A U8C G9C C13G, the “aptazyme ON/OFF ratio” value stood at 1.06.

Consider U7A U8C G9C C13A, for which the “aptazyme ON/OFF ratio” value was found to be 1.07.

Regarding U7A U8C G9U C13U, the “aptazyme ON/OFF ratio” value stood at 1.23.

Take U7A U8C G9U C13A: the “aptazyme ON/OFF ratio” value was 1.27.

U7A U8C G9U C13G: the “aptazyme ON/OFF ratio” value is 1.03.

Take U7A U8C G9U U10A C12U C13G: the “aptazyme ON/OFF ratio” value amounted to 1.17.

Regarding U7A U8C G9U U10A C12U C13U, the “aptazyme ON/OFF ratio” value stood at 1.42.

For the variant U7A U8C G9U U10A C12U C13A, the “aptazyme ON/OFF ratio” value stood at 1.29.

As to U7A U8C G9C U10G U11C C12U C13A, the “aptazyme ON/OFF ratio” value was found to be 1.12.

Turning to U7A U8C G9C U10G U11C C12U C13U, the “aptazyme ON/OFF ratio” value amounted to 1.11.

Turning to U7A U8C G9C U10G U11C C12U C13G, the “aptazyme ON/OFF ratio” value came to 1.16.

In the case of U7A U8C G9C U11A C12A C13U, the “aptazyme ON/OFF ratio” value was found to be 1.05.

In the case of U7A U8C G9C U11A C12A C13G, the “aptazyme ON/OFF ratio” value came out at 1.08.

U7A U8C G9C U11A C12A C13A: the “aptazyme ON/OFF ratio” value turned out to be 1.07.

For the variant U7A U8C G9C U10G U11A, the “aptazyme ON/OFF ratio” value amounted to 1.04.

On to U7A U8C G9C U10G U11G, for which the “aptazyme ON/OFF ratio” value came to 1.06.

As to U7A U8C G9C U10G U11C, the “aptazyme ON/OFF ratio” value turned out to be 1.1.

Consider U7A U8C G9C U10C U11G C12G, for which the “aptazyme ON/OFF ratio” value is 1.08.

For the variant U7A U8C G9C U10C U11G C12A, the “aptazyme ON/OFF ratio” value amounted to 1.13.

Turning to U7A U8C G9C U10C U11G C12U, the “aptazyme ON/OFF ratio” value is 1.06.

Consider U7A U8C G9C U10C, for which the “aptazyme ON/OFF ratio” value was found to be 1.18.

For U7A U8C G9C U10A, the “aptazyme ON/OFF ratio” value turned out to be 1.17.

With U7A U8C G9C U10G, the “aptazyme ON/OFF ratio” value was found to be 1.01.

Consider U7A U8C G9A U11G C12A C13U, for which the “aptazyme ON/OFF ratio” value is 1.08.

For the variant U7A U8C G9A U11G C12A C13G, the “aptazyme ON/OFF ratio” value came out at 1.21.

On to U7A U8C G9A U11G C12A C13A, for which the “aptazyme ON/OFF ratio” value was 1.22.

Turning to U7A U8C G9C, the “aptazyme ON/OFF ratio” value was found to be 1.08.

For U7A U8C G9U, the “aptazyme ON/OFF ratio” value was determined as 1.94.

As to U7A U8C G9C U10A C12U C13G, the “aptazyme ON/OFF ratio” value turned out to be 1.07.

As to U7A U8C G9C U10A C12U C13U, the “aptazyme ON/OFF ratio” value was 1.07.

On to U7A U8C G9C U10A C12U C13A, for which the “aptazyme ON/OFF ratio” value was 1.05.

Turning to U7A U8C G9C U10A C13G, the “aptazyme ON/OFF ratio” value amounted to 1.07.

For the variant U7A U8C G9C U10A C13U, the “aptazyme ON/OFF ratio” value is 1.06.

U7A U8C G9C U10A C13A: the “aptazyme ON/OFF ratio” value came out at 1.09.

U7A U8C G9C U10G C13A: the “aptazyme ON/OFF ratio” value turned out to be 1.1.

For the variant U7A U8C G9C U10G C13G, the “aptazyme ON/OFF ratio” value was found to be 1.09.

Take U7A U8C G9C U10G C13U: the “aptazyme ON/OFF ratio” value turned out to be 1.14.

U7A U8C G9C U11C C13A: the “aptazyme ON/OFF ratio” value amounted to 1.05.

With U7A U8C G9C U11C C13G, the “aptazyme ON/OFF ratio” value was found to be 1.04.

For the variant U7A U8C G9C U11C C13U, the “aptazyme ON/OFF ratio” value is 1.03.

On to U7A U8C G9U C12G C13A, for which the “aptazyme ON/OFF ratio” value was 1.23.

For the variant U7A U8C G9U C12G C13G, the “aptazyme ON/OFF ratio” value came out at 1.16.

On to U7A U8C G9U C12G C13U, for which the “aptazyme ON/OFF ratio” value turned out to be 1.37.

As to U7A U8C G9C U10C U11A C12U C13A, the “aptazyme ON/OFF ratio” value is 1.04.

As to U7A U8C G9C U10C U11A C12U C13G, the “aptazyme ON/OFF ratio” value is 1.01.

For the variant U7A U8C G9C U10C U11A C12U C13U, the “aptazyme ON/OFF ratio” value was 1.02.

Consider U7A U8C G9C U10A U11C C12U C13G, for which the “aptazyme ON/OFF ratio” value is 1.26.

On to U7A U8C G9C U10A U11C C12U C13A, for which the “aptazyme ON/OFF ratio” value worked out at 1.05.

Consider U7A U8C G9C U10A U11C C12U C13U, for which the “aptazyme ON/OFF ratio” value amounted to 1.22.

Turning to U7A U8C G9A U11C C12G, the “aptazyme ON/OFF ratio” value stood at 1.24.

For the variant U7A U8C G9A U11C C12U, the “aptazyme ON/OFF ratio” value came out at 1.14.

As for U7A U8C G9A U11C C12A, the “aptazyme ON/OFF ratio” value is 1.21.

With U7A U8C G9C U10G U11A C12A C13U, the “aptazyme ON/OFF ratio” value was found to be 1.06.

For the variant U7A U8C G9C U10G U11A C12A C13A, the “aptazyme ON/OFF ratio” value stood at 1.03.

Consider U7A U8C G9C U10G U11A C12A C13G, for which the “aptazyme ON/OFF ratio” value was 1.16.

For the variant U7A U8C G9C U10A U11C C13A, the “aptazyme ON/OFF ratio” value is 1.41.

On to U7A U8C G9C U10A U11C C13U, for which the “aptazyme ON/OFF ratio” value is 1.12.

With U7A U8C G9C U10A U11C C13G, the “aptazyme ON/OFF ratio” value is 1.46.

In the case of U7A U8C G9A U11A C12G C13A, the “aptazyme ON/OFF ratio” value stood at 1.11.

In the case of U7A U8C G9A U11A C12G C13U, the “aptazyme ON/OFF ratio” value came to 1.16.

Turning to U7A U8C G9A U11A C12G C13G, the “aptazyme ON/OFF ratio” value turned out to be 1.21.

For the variant U7A U8C G9U C12A, the “aptazyme ON/OFF ratio” value was found to be 1.26.

Consider U7A U8C G9U C12G, for which the “aptazyme ON/OFF ratio” value is 1.45.

Take U7A U8C G9U C12U: the “aptazyme ON/OFF ratio” value came out at 1.33.

In the case of U7A U8C G9C U11A C12G C13U, the “aptazyme ON/OFF ratio” value was determined as 1.13.

For the variant U7A U8C G9C U11A C12G C13A, the “aptazyme ON/OFF ratio” value is 1.09.

On to U7A U8C G9C U11A C12G C13G, for which the “aptazyme ON/OFF ratio” value turned out to be 1.16.

Consider U7A U8C G9C U10C U11C C12A, for which the “aptazyme ON/OFF ratio” value turned out to be 1.05.

U7A U8C G9C U10C U11C C12G: the “aptazyme ON/OFF ratio” value was found to be 1.03.

Consider U7A U8C G9C U10C U11C C12U, for which the “aptazyme ON/OFF ratio” value was found to be 0.94.

In the case of U7A U8C G9C U10A U11A C12U, the “aptazyme ON/OFF ratio” value stood at 1.07.

In the case of U7A U8C G9C U10A U11A C12A, the “aptazyme ON/OFF ratio” value came to 1.09.

As for U7A U8C G9C U10A U11A C12G, the “aptazyme ON/OFF ratio” value is 1.13.

On to U7A U8C G9C U10C C12A C13G, for which the “aptazyme ON/OFF ratio” value amounted to 1.13.

As to U7A U8C G9C U10C C12A C13A, the “aptazyme ON/OFF ratio” value amounted to 1.03.

For the variant U7A U8C G9C U10C C12A C13U, the “aptazyme ON/OFF ratio” value turned out to be 0.999.
